Assay results reported in the DeepSol protein solubility set.

assay: soluble on expression in E. coli; label from the status in PepcDB or PDB records

Row | Sequence | soluble on expression in E. coli
1 | MGSDKIHHHHHHMKISICGKGGCGKSSITTLLAKEFAKKGHNVLVIDGDESNLSLHKLLGMDLPKDFIEYLGGRKEFMKKLREKMDGKEVELFEGEISIDSLPKEYLVEKDNIKLLAIGKIHDFGEGCACPMGALLREFLKSLKLKDKEVVIVDTEAGIEHFGRGVEGGCDVIIAIIDPTYESIRLSKKIEEIGEKLGKKVYFIVNKVDDETKDLILENVNKDKVIAVIPNNKEIMKCGLMGEELNAELSEIKDVVEILTK | not soluble
2 | MGSDKIHHHHHHMKIVKFGGSSLSSGVQIRKVFQIVKSDPERRIVVVSAPGKRFKGDVKITDLLLKLAEAILNEEKTAQIYEQIFLRYQAIGDFFKIPRSGIEQLKEHLYSVAQADYPSNDFFRAALSAQGENMSAHLITLIFKQLGLKARLLTPKEVGLTVSGEARKAQILPGSYAKIAKTKFTDNEVLIFPGFFGITKNGLINTFSRGGSDITGAILARGFGADLYENFTDVDSIYAVNPGLVADPAPIKEMTYNEMRELSYAGFAVFHDEAILPAIQGKIPICVKNTNRPEMPGTKIVPRDKVSHKNKITGIASSHHFQAIYLHRYLINREVGFTAKILKIMADLNISYEHMPSGIDDLTIILDKNQLTNGRKEKLTQRIKDEIQPDDLQWRNDYAIIMVVGEGLVNRVGAMADIVDPIRDAGISLTMVNQGSSEISIMLGVRPEDEQKAVKAIYNDHFENGHPKKELQIPRASFKSVSKSLIANFFV | not soluble
3 | MGSDKIHHHHHHMKKKFQLEVPGGADKVLLHTCCAPCSSAIIECLMQHGVTPVIYYCNPNIYPLEEYIIRKDECTRYAQSLGLEIIDADYDHDAWRCRMAGMEQEPERGGRCLRCFKMRLQETARYAHEHGFPVITTTLASSRWKSLEQIEEAGRYATAPYPDVTYWEQNWRKGGLSERRIAIIKEYNFYNQQYCGCEFSMRKEEKGG | not soluble
4 | MGSDKIHHHHHHMKKLRVPHRTKSARVVQELVRLAAGLAASGSRVEDAFWENCLTAKIHAQLRTGDDQNLESALDQLYDTDPGGYSEFMYAIEAAIECSIFTRGNHTYDVLMLAVPMLTWSRFSIPSGLIAESVLSELRGQLQVQVLADDAQLALADCLFSPDQLPRGYHLTHELARKLWSTAVTGQRDLHMNPRQLPETGRFLSDTRYLLGGIAVPQGKPMFRWQQGTAGEHKGSNVSALQFSKEQILHAWQTHGTAVLLPLFQGCAFELLMPDGFFSAWRAADRLARPYSVRATVDFLETTLGISPDRLRAVIAPFYDQWLEEYRIGFTLKDRDSVLYGIIWGLVGDEDENTDSVAQIEAALRECGVTQTILLQEHFLLEYCEECGGPLFPNVNGEIVHAEFPEEGEVAPIHLH | not soluble
5 | MGSDKIHHHHHHMKKNVQIKGTKSGISIFLSDKASISELQQELSQLLADQKQNPYSGEKLEVQVQIGNRLFSEEEEREISTIIHNNSQMKISAFYSNVMSKDEAKKWKENDQIFSMATIIRSGQVVQVPGDFLLIGDVNPGGQIRSNGNVFVLGNIKGIIHAGFEGDENAVVAGKFLYPSQVRIAGKVYGFDSEDYKEVADTDLFSAFVNDAGEIVIDEIHKIRKIRPEISNFQGGR | not soluble
6 | MGSDKIHHHHHHMKKSCKVSVHQLQIGNFVRLPVAWKDHPFLFSSFHIKQAAQIELIKNLGIAHVIVDLERSDVEPLSIDAVNPIKLPPAPEIHDLKNDMELYKAEQIEVQKKLRRDIHKTEQNFTRSVAMMRSMISKLRNRPLNAVDDAKDLVHSIVEQLLTSDNLVLHLMSDAKQDESIYYHSLNVAILSMLIAKEMEWSRSEIEAIGLSALFHDVGKLKIPPQILKKSTPWSAPELNFIKQHPLLGVELLKLAENFPPSALPAITNHHEFLDGTGYPKGLKEADLDQMSQLLAVVNEYDSLCYPNPQDKPMMPYAALGHLYKQYKTKLNQEYIGKIIKMLGIYPPGSVVELSSGQYAMVMSVNLQKLLCPKILVYDAQVPKDQAPIVDLELEGISIVRCLPPAALPEKVHEYLNPRERVSYYFGGDSRK | not soluble
7 | MGSDKIHHHHHHMKKTIYKVLVSFYQYVGLGKKFHPSHDTVLIIGGSSNELGIELCETFIEDYHTKVINIDTIDSINGKNARRSEKLYTFISCKDFSDIKCLEESMLYLQNLEIIPTVLINNMQEGIESTLLKEDKFLRLDEESLNEFEKIVRYNLQSVILITKFCLSNIFPKVQAEAQEKAKGFYIVNISSVLTLKPCKSGTHFITSKCGINSFHDGITSELKLKDSNLNVKTLIAYLPSFESEAHWKRLSPSISKHLVHCLLEGRYGDTILESKRSIGDILLITGFKSSFT | not soluble
8 | MGSDKIHHHHHHMKKTSFIYLLLLIALGLSSCQQEKTFKVLQFNIWQEGAVVKGGFDAIADEIVRSNADFVTLSEVRNYHQTRFCDRIVEALQQRGQTYYSFYTEDSGLLSRYPITDSTTVYPLNDDRGSMYKAITHIGDTEVALYTAHLDYRNCAYYDARGYDGNTWDEEPPVTNLDTLLWLNEQSVRDDAIACFLKEAKKDREAGRIVILGGDFNEPSHLDWTEATKDMRDHQGLVVPWHVSVMLEKDGFKDTYREIFPNPVTHPGLTCPADCKDIALEKLVWSPKADDRDRIDFIHYAPFEGLTLTDVCIIGPKGDILRGQRETEETSDPIMTPLGIWPTDHKAVLATFHLK | not soluble
9 | MGSDKIHHHHHHMKKVRAAIVGYGNIGHYVLEALQAAPDFEIAGVVRRAGAENKPEELANYAVVKDIKELEGVEVAILCTPTRSVEKYAKEYLAMGINTVDSFDIHTGIVDLRRTLDATAKEHKAVSIISAGWDPGSDSIVRTMLEAIAPKGITYTNFGPGMSMGHTVAVKAIDGVKAALSMTIPTGTGIHRRMVYIELKDGYKFEEVAAAIKADPYFVNDETHVKLVPSVDALLDMGHGVNLTRKGVSGKTQNQLFEFNMRINNPALTAQVLVCVARASMKQQPGCYTMVEVPVIDLLPGDREEWIGHLV | not soluble
10 | MGSDKIHHHHHHMKKYSLTPAMLEVCKEYNFFSDVSGFMPLTSENIKEIKIGKKFAYSHQDNNKPTHQKLSKIIFENFLSNIPLNQSAIAYVKKKSYFDFIEPHRNNYFFLRIDLKDFFHSISEDLLKRTLSDYFSSESLSETIKQSNIDAIFTFLTVNLKSDSSNVKFLDKKILPIGFPLSPNLANIVFRKTDLLLEKLCDMHGVTYTRYADDMLFSSRGIMEKNLLFRKNNNYKKPYIHSDNFLSEIKYLVSIDGFFINHNKTIKSVNTLSLNGYTISGTNFPDIEGKIRLSNKKTKIIEKVIHEININPDDKVTFEKCFKKEFPKPKYEKNRDNFINNLCTIKINQKLLGYRSYLISIIKFNNKFNCISESSEDKYNTLLSKIENVIKKRIK | not soluble
11 | MGSDKIHHHHHHMKLKYVLYMAAALSLTGCNDSFLERGPQNLNDQSFWISVNDLKAYANAFYGLIPGGVSVLDDTDSDIQVPNDINSFLWGQYVVPTEGGVWQKSNWQNIRNINYFMTHYQSVQAAEADVNIYVAEMRFFRALEYFNKIQLLGDVPWLEVDLNVDSEELYGPKMKRNQVFQKIIEDLDFAIQWLPEAGSEEANRLNKDIARHVKARFCLNEGTHYKYHDELEYASEAEKWLQMAATESDKLITSGRYEIYNTGHPQEDYFNMYRIDDKSDLKEAVLYVDYKTNIREHNMAAAGREAGCGFSKSFVESFLCSDGLPISLSNKYLGDETMRKETANRDPRLKQLILTNDFPTNVTDDLKDSTFVVNEDEFITQHCFTGYRPIKGFNPIYSQALYMKSSFDGIAYRYAETLLINAEAKAELNTITNADLDRTVNQLRDRVGMPHLTVM | not soluble
12 | MGSDKIHHHHHHMKLVDSIYGTYTVEPVISELIDSAPVQRLKGIHQGGACYIVKPSWNVTRFEHSIGVMLLIRKLGGSLEEQIAGLLHDVSHTAFSHVIDYVLAEEEEDYHEQIYEQVIRASEIPHILDKYGFDLERIVLNHSCWTLLEQPSPSLCADRIDYTLRDLYTYGHINKQEVDDFIANLIVVDGIISTSSVAGAEWFVRAYYKEVIDFFLDPLNVYGSSVLTSVLKSAVERKALGLDDFLKTDEELMEQLQRLNDDSIQKQLATLHPHVNVRENENHYHIHKTNKLRLIDPHVYLDGTFQRISSLSKQVKKWNEEAQRRADRGAYVEVLSS | not soluble
13 | MGSDKIHHHHHHMKMTDPLYGTFEIEPVLAELIQSPLVSRLAHVHQGGSSYLVNPLWDLSRLDHSIGVMLFIRKFGGSLEEQIAGLLHDVSHTAFSHVVDYALDFEEEDYHEQIFEDFVKTSTIPAILEKYGYSFEGIFDDISKWKILEQEAPELCADRIDYTLQDLYRHRKISLAEVEEFLQALVMVDGRLYLANIALAEWFVAQYYSEVIDYFYDPLNVYSYEILAEAMRIAFQQETITTADLRLTDTELLAKLNANSDAREKIQLLASAHLEENEADFTYHHKKKMRLINPSILVDGRLIPADELSEKVRKMNDWASERSKHGIYIKATKKSKQ | not soluble
